Assay results: CN116284353A

Molecular target: 柯萨奇病毒A16型病毒样颗粒 (Coxsackievirus A16) (UniProt Q65900)
Assay: sandwich ELISA: rabbit anti-CV A16 VLP polyclonal serum (1:8000) as capture, CV A16 VLP titrated, mAb 10 ng/μL as detector; positive when OD450nm>0.15

Sequence of UniProt Q65900 (Q65900 2-862): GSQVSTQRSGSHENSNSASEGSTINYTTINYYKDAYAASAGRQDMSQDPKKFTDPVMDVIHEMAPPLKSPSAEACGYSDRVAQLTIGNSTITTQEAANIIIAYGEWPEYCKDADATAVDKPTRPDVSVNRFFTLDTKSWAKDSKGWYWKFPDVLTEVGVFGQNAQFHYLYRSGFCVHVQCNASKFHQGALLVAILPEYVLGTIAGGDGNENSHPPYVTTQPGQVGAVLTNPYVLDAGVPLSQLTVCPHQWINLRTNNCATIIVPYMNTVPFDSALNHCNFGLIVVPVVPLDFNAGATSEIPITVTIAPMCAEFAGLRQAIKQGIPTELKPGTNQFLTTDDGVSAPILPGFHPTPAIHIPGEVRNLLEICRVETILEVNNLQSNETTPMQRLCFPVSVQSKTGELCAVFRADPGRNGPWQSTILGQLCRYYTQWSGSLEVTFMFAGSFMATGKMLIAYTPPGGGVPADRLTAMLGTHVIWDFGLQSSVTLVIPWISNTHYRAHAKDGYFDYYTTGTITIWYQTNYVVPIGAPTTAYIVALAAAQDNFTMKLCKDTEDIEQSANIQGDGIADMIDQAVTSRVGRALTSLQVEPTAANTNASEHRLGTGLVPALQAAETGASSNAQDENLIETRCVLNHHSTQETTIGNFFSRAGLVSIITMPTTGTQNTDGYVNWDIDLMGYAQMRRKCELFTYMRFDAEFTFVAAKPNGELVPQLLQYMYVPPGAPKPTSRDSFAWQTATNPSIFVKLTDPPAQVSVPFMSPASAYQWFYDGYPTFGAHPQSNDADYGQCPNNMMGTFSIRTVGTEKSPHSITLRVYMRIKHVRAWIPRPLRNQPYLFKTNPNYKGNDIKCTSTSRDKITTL

B1: 单克隆抗体3H5 (antibody, mouse IgG1, kappa, V domains shown)
VH: EVKLEESGGGLVQPGGSMKLSCVGSGFTFSNYWMNWVRQSPDKGLEWVAEIRSKSNNYATHYAESVKGRLTISRDDSKSGVYLQMNNLRPEDTGIYYCTRSGAYWGQGTLVTVSA
VL: QIVLTQSPAIMSASPGEKVTMTCSASSSVSYIYWYQQKPGSSPRLLIYDTTRLASGVPVRFSGSGSGTSYSLTISRMEAEDAATYYCQHWNSYPFTFGSGTKLEIKR
Work on B1 yielded a 最低检出限度 of 62.5 ng/mL.
